In the data set the test system is MS2 coat protein. Nature of the data set: apparent KD of MS2 coat protein; designed switch direction (-1 OFF switch, 1 ON switch): 1; higher = weaker reporter binding. The procedure, abridged: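 Three titration conditions were used: no input, 200 uM small-molecule ligand, and an oligonucleotide input. In each, SNAP-549-labelled MS2 coat protein was raised from 0.7 or 1.5 nM, doubling, to 3 µM over designed RNA switches transcribed on Illumina chips by stalled E. coli RNA polymerase. Curve fits of normalised cluster fluorescence gave values whose per-design median over clusters is the apparent KD.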

Where [1] appears, read: input ligand: microRNA oligo, concentration not stated.
Where [2] appears, read: Eterna round: R95, input ligand: FMN 200 uM.
[3] abbreviates: Eterna round: R95, input ligand: microRNA oligo, concentration not stated.
The mark [4] stands for this setting: Eterna round: R95, input ligand: none.

Regarding “UGGUACAUGGGAGGAUAUCAUGUAGACAUGAGGAUCACCCAUGUAGCCAUGGAGACAUGGGAGAAUGAGAAGGCCCAUGUACCU [JL SSNG1 3.54] (Eterna round: R96, puzzle: Same State NG 2)”, the “apparent KD of MS2 coat protein” value (input ligand: FMN 200 uM) was 0.298 µM, the “apparent KD of MS2 coat protein” value under setting [1] is 0.0141 µM and the “apparent KD of MS2 coat protein” value (input ligand: none) stood at 0.104 µM.

With “CCAUAGUACAAUUUAGAUCUACAUGAGGAUCACCCAUGUACUGAGGAUAUCAGCUCGAAUAGAGCUGAGAAGGCAGAAUUAAUU [SSNG3/5-A1] (Eterna round: R96, puzzle: Same State NG 3)”, the “apparent KD of MS2 coat protein” value under setting [1] is 0.103 µM.

Regarding “GGAGAAUAACUAGAGGAUAUCCGAGUGGUAACAUGAGGAUCACCCAUGUGAUGAAAGGAACAUGAGGAGAAGGCUAGAAUGAAGG [Mat - Same State 2 - Mod of JL - D85] (puzzle: Same State 2)”, the “apparent KD of MS2 coat protein” value came out at 0.0373 µM under setting [2], 0.0349 µM under setting [3] and 0.0776 µM under setting [4].

For “UCUUGGUUUUUGCUCGUUUUUUGUGUUGAACAUGAGGAUCACCCAUGUAUUGUACGGUCCGAUUUAGUGAUGGUCCA [JMF 40] (puzzle: Sensor for hsa-mir-208a)”, the “apparent KD of MS2 coat protein” value by setting is: under setting [2], 0.0369 µM; under setting [3], 0.0184 µM; under setting [4], 0.0425 µM.

In the case of “AUACAUGAGGAUCACCCAUGUAAUUAAUUAAUUAAUAAGAUCAAGGAUAUCAGCUCGAUUAGAGCUGAGAAGGUGAUCACAUGU [SSNG3/21-D2] (Eterna round: R96, puzzle: Same State NG 3)”, the “apparent KD of MS2 coat protein” value under setting [1] was 0.272 µM.

For “GGUCGGACUCACAUGAGGAUCACCCAUGUUGGCGAAAGCCGGCAGGAUAUCUGUCCGAAAAGGUCAGAGAAGGGCUAACCGACC [Fiskers NG3ss - 60] (Eterna round: R96, puzzle: Same State NG 3)”, the “apparent KD of MS2 coat protein” value was determined as 0.0657 µM (input ligand: FMN 200 uM), 0.186 µM under setting [1] and 0.188 µM (input ligand: none).

Consider “AGGCUCAGACGAGGAUAUGAUCAUGGCGCUUCGGCGCAUACAUGAGGAUCACCCAUGUAAAGUGAUCAGAAGGCGUCUGAGCCA [SSNG2/7-A1] (Eterna round: R96, puzzle: Same State NG 2)”, for which the “apparent KD of MS2 coat protein” value by setting is: (input ligand: FMN 200 uM) 0.0123 µM; under setting [1], 0.0145 µM; (input ligand: none) 0.0142 µM.

Take “GCUAGGAAAGAAGCCAACAUGAGGAUCACCCAUGUAUGUUGGUAGGAUAUCGUAUGCAAAGCAUACGAGAAGGGCUAACCUAGC [Mat - Same State NG 3 - JL Mod - D74] (Eterna round: R96, puzzle: Same State NG 3)”: the “apparent KD of MS2 coat protein” value (input ligand: FMN 200 uM) turned out to be 0.127 µM, the “apparent KD of MS2 coat protein” value under setting [1] was 0.127 µM and the “apparent KD of MS2 coat protein” value (input ligand: none) was 0.153 µM.

With “UGGCUCAGACGAGGAUAUACGUGGUCACAUGAGGAUCACCCAUGUCUCGAGCUUCGGCUCGAGGCGUAGAAGGUGUCUGAGCCU [SSNG2/6-C3] (Eterna round: R96, puzzle: Same State NG 2)”, the “apparent KD of MS2 coat protein” value came to 0.237 µM (input ligand: FMN 200 uM), 0.363 µM under setting [1] and 0.662 µM (input ligand: none).

With “AGUCCAGCCUGAGCUGGACAAAAGCAUGUACAUGAGGAUCACCCAUGUCAUGUACAAGCUUUUUGCUCGUUUUAAUA [Zipper 49 - 14] (puzzle: Sensor for hsa-mir-208a)”, the “apparent KD of MS2 coat protein” value worked out at 0.509 µM under setting [2], 0.014 µM under setting [3] and 0.679 µM under setting [4].

Turning to “UAAAUAAAGUAAGGAUAUACAUGAGGAUCUCUCGUAGAAGGUACUAUACAUGAGGAUCACCCAUGUGCCGGUCCGUAGACUGGA [Mat - Same State NG 1 - JL mod - D8] (Eterna round: R96, puzzle: Same State NG 1)”, the “apparent KD of MS2 coat protein” value (input ligand: FMN 200 uM) is 0.475 µM, the “apparent KD of MS2 coat protein” value under setting [1] stood at 0.107 µM and the “apparent KD of MS2 coat protein” value (input ligand: none) came out at 0.0688 µM.

Consider “UUGUUUCGUCAUUAACAUGAGGAUCACCCAUGUCUUGGCCCAGAGGAUAUGCAUGUUUGAUUGUAGCAGAAGGCUGAUUGUUGU [JR_SSNG3_Sub031] (Eterna round: R96, puzzle: Same State NG 3)”, for which the “apparent KD of MS2 coat protein” value by setting is: (input ligand: FMN 200 uM) 0.0259 µM; under setting [1], 0.0349 µM; (input ligand: none) 0.0425 µM.

As to “CAGCGCUGUCGAGAGGAUAUGUGGUGAUGGACAUGAGGAUCACCCAUGUUAGCGACAGUAUCACGGCAGAAGGCUCUACCGCUGC [Soteed Omei mod 31] (puzzle: Same State 2)”, the “apparent KD of MS2 coat protein” value was found to be 0.0561 µM under setting [2], 0.0381 µM under setting [3] and 0.044 µM under setting [4].

“GCUAGUAUAAUUGCUAACAUGAGGAUCACCCAUGUAUGUUGGCAGGAUAUCGUUUGCAAAGCAAACGAGAAGGGCUAAACUAGC [Mat - Same State NG 3 - JL Mod - D14] (Eterna round: R96, puzzle: Same State NG 3)”: the “apparent KD of MS2 coat protein” value worked out at 0.0363 µM (input ligand: FMN 200 uM), 0.103 µM under setting [1] and 0.104 µM (input ligand: none).

As for “GCUACCAUUGAAGCCAACAUGAGGAUCACCCAUGUAUGUUGGCAGGAUAUCGAUUGCUUUGCGAUCGAGAAGGGCUAAGGUAGC [JL SSNG3 1.29] (Eterna round: R96, puzzle: Same State NG 3)”, the “apparent KD of MS2 coat protein” value by setting is: (input ligand: FMN 200 uM) 0.12 µM; under setting [1], 0.153 µM; (input ligand: none) 0.171 µM.

For the sequence “GUACAGAUCAGAGGAUAUCACGUCGAAUAGACGUGAGAAGGCUGAUCACACAUGAAUAUUAGUACAUGAGGAUCACCCAUGUAC [SSNG1/15-A1] (Eterna round: R96, puzzle: Same State NG 1)”, the “apparent KD of MS2 coat protein” value reads like this: (input ligand: FMN 200 uM) 0.0145 µM; under setting [1], 0.0128 µM; (input ligand: none) 0.018 µM.

For “UUCCUACAUGAGGAUCACCCAUGUGACGCCUCGAUAGGAUAUGCGUGUGCCUUGGCGCAUGCAGAAGGGUUGUAGC [JL Aveso mod 9] (puzzle: Same State 1)”, the “apparent KD of MS2 coat protein” value was determined as 0.0392 µM under setting [2], 0.0348 µM under setting [3] and 0.0375 µM under setting [4].

“CUUUCUCUUGCAGGAUAUCCUAGUCUUCGGUUAGGAGAAGGGCAAGGAAACUUGCUAAGCAAGUCUGUAACAGAGAUCCUUCCU [pwkr ssNG1 F9.2] (Eterna round: R96, puzzle: Same State NG 1)”: the “apparent KD of MS2 coat protein” value is, setting by setting: (input ligand: FMN 200 uM) 0.124 µM; under setting [1], 0.0782 µM; (input ligand: none) 0.164 µM.

For the sequence “CAAGCUUGGGUCGUCCCGCUCGUCUUCAAACAUGAGGAUCACCCAUGUAUACUCUUCACAUCAAUUCUAUCUCUUAA [Ralasoerin] (puzzle: Sensor for hsa-mir-208a)”, the “apparent KD of MS2 coat protein” value by setting is: under setting [2], 0.255 µM; under setting [3], 0.0228 µM; under setting [4], 0.289 µM.

For the sequence “GGUAAGAAUUAAGGAUAUCGAGUACAUAUGUUUAACAUGAGGAUCACCCAUGUGGGUUGCGGUAUCGAGAAGGUAAAUUAUAAG [Mat - same State NG 2 - JL mod - D63] (Eterna round: R96, puzzle: Same State NG 2)”, the “apparent KD of MS2 coat protein” value came out at 0.0433 µM (input ligand: FMN 200 uM), 0.0297 µM under setting [1] and 0.0508 µM (input ligand: none).

Regarding “AGCUAAUACGAAGGAUAUACUGACAUGAGGAUCACCCAUGUCUACAUGAUUUAUUGUGAUCACAUGUAGAAGGUCGUACUAACA [SameState NG2 #23] (Eterna round: R96, puzzle: Same State NG 2)”, the “apparent KD of MS2 coat protein” value (input ligand: FMN 200 uM) came to 0.0268 µM, the “apparent KD of MS2 coat protein” value under setting [1] was 0.0623 µM and the “apparent KD of MS2 coat protein” value (input ligand: none) turned out to be 0.0798 µM.

As for “GCCGCGUUUCGCGCCUACAUGAGGAUCACCCAUGUUUGUGGGCAGGAUAUCGUCCGCUCUGCGGGCGAGAAGGGCUGUUGUGGG [salish99_SSNG3_R04_024] (Eterna round: R96, puzzle: Same State NG 3)”, the “apparent KD of MS2 coat protein” value runs as follows: (input ligand: FMN 200 uM) 0.231 µM; under setting [1], 0.159 µM; (input ligand: none) 0.215 µM.

“UUAUCCUUUUUUUACAUGAGGAUCACCCAUGUUUUUCUUACGUAGGAUAUCGUUGUUUUUUUUUACGAGAAGGACGUAGUAUGU [JR_SSND3_Sub062] (Eterna round: R96, puzzle: Same State NG 3)”: the “apparent KD of MS2 coat protein” value is, setting by setting: (input ligand: FMN 200 uM) 0.0358 µM; under setting [1], 0.0304 µM; (input ligand: none) 0.0365 µM.

For “UGGCUCAGACGAGGAUAUAUGUGAUCACAUGAGGAUCACCCAUGUCUCGAGCUUCGGCUCGAGACAUAGAAGGCGUCUGAGCCU [SSNG2/3-A3] (Eterna round: R96, puzzle: Same State NG 2)”, the “apparent KD of MS2 coat protein” value (input ligand: FMN 200 uM) worked out at 0.512 µM, the “apparent KD of MS2 coat protein” value under setting [1] turned out to be 0.0123 µM and the “apparent KD of MS2 coat protein” value (input ligand: none) stood at 0.0178 µM.

Consider “AAAAUACAUGAGGAUCACCCAUGUAGAAACUACACAGGAUAUCGGACGGCUGUAGCCAAACGAGAAGGGUGAACCC [Ramazaza] (puzzle: Same State 1)”, for which the “apparent KD of MS2 coat protein” value runs as follows: under setting [2], 0.0908 µM; under setting [3], 0.0608 µM; under setting [4], 0.092 µM.

Turning to “UGUUGUAUUACAGGAUAUCUAGUAUUUUUGUUUAGAGAAGGGUAUUCACAUGAGGAUCACCCAUGUAUAUACGAGGAAGUUGUG [JMF's solution 47] (Eterna round: R96, puzzle: Same State NG 1)”, the “apparent KD of MS2 coat protein” value under setting [1] stood at 0.0423 µM.

For the sequence “CUGAGCAAUCUAGGAUAUCACGUCGAUUAGACGUGAGAAGGAGAUCAUAACAUGAGGAUCACCCAUGUAUUACAUGAAGCUCAG [SSNG1/7-A2] (Eterna round: R96, puzzle: Same State NG 1)”, the “apparent KD of MS2 coat protein” value runs as follows: (input ligand: FMN 200 uM) 0.0117 µM; under setting [1], 0.0138 µM; (input ligand: none) 0.0191 µM.

As for “AGUCCAGCCUGAGCUGGACAAAAGCAUGUACAUGAGGAUCACCCAUGUUCAUGUACAAGCUUUUUGCUCGUCUAAAG [Mat - hsa-mir-208a - Mod of JL - 66] (puzzle: Sensor for hsa-mir-208a)”, the “apparent KD of MS2 coat protein” value was found to be 0.506 µM under setting [2], 0.0166 µM under setting [3] and 0.88 µM under setting [4].
